Laboratory results published in patent US11919930B2, “Odorant receptor co-receptor” (Sumitomo Chemical Company, Limited, priority 2016, dated 2024).
“Also recorded” adds a separate entry of the source.

Test system: odorant receptor AaOR8
Test: Aequorin luminescence measurement in HEK293FT cells co-expressing AaOR8 and a co-receptor, 1-octen-3-ol added
Type: cell-based
Conditions: 1-octen-3-ol 10^-4 to 10^-10 M; for intensity of response (relative amount of luminescence) to 1-octen-3-ol: compared to cells that expressed original AaORCO or DmORCO
Method: HEK293FT cells (purchased from invitrogen, Inc.) were inoculated into 10-cm Petri dishes at a concentration of 3×10^6 cells/Petri dish, and the cells were cultured in DMEM medium containing 10% FBS (manufactured by Nacalai Tesque, Inc.) for about 24 hours under the conditions of 37° C. and 5% CO2. 3 μg of any one of the co-receptor expression plasmids produced, 1.5 μg of any one of the odorant receptor expression plasmids produced, and 8 μg of Aequorin expression plasmid were mixed with 12.5 μL of Plus reagent and 31.25 μL of LIPOFECTAMINE LTX (manufactured by Invitrogen, Inc.), and the mixture was maintained for 30 minutes. Subsequently this liquid mixture was transfected into the above-mentioned cells. After 4 hours from the initiation of transfection, the cells were inoculated onto a 96-well plate at a concentration of 9×10^4 cells/well, and the cells were cultured in DMEM medium containing 10% FBS (manufactured by Nacalai Tesque, Inc.) for about 24 hours under the conditions of 37° C. and 5% CO2. Thereby, transformed cells having a co-receptor expression plasmid, an odorant receptor expression plasmid, and an aequorin expression plasmid transiently incorporated therein were obtained.
Aequorin is activated when hound to a calcium ion, and oxidizes a substrate such as coelenterazine, thus emitting light. […] Therefore, whether an odorant receptor complex functions an ion channel as a result of addition of a substance to be detected, can be measured from the change in the amount of luminescence.
A culture fluid of the transformed cells was removed, and the medium was exchanged with Hanks-HEPES (20 mM, pH 7.4) including Assay buffer (0.5 μM coelenterazine h (manufactured by Promega Corporation) and 0.3% BSA. culture system was left to stand for another 4 hours at room temperature. Subsequently, a substance to be detected, which corresponded to an odorant receptor, was added to the cell culture using FLEXSTATION 3 (manufactured by Molecular Devices, LLC), and at the same time, the amount of luminescence of the cells was measured. As a control substance, the amount of luminescence in the cells to which dimethyl sulfoxide had been added was designated as 1, and the amount or luminescence of cells to which the substance to be detected was added was calculated as a relative value.
(§1) Cells into which: • an expression plasmid of odorant receptor AaOR8; • an expression plasmid of any one of co-receptor AaORCO or DmORCO, or various chimeric co-receptors Dm-AaORCO having different positions of recombination [Dm(NT-EC1)AaORCO, Dm(NT-TM3)AaOROC, Dm(NT-TM4)AaORCO, Dm(NT-TM5)AaORCO, or Dm(NT-TM6)AaORCO]; and • an aequorin expression plasmid had been incorporated were used, and the amount of luminescence was measured as explained above. 1-Octen-3-ol was used as a substance to be detected, and 1-octen-3-ol was added to the culture fluid at a concentration of 10^−4 M, 10^−5 M, 10^−6 M, 10^−7 M, 10^−8 M, 10^−9 M, or 10^−10 M. The results are presented in FIG. 1.
as §1, with “AmORCO” for “AaORCO”, “Dm-AmORCO” for “Dm-AaORCO”, “[Dm(NT-TM3)AmOROC, Dm(NT-TM4)AmORCO, Dm(NT-TM5)AmORCO,” for “[Dm(NT-EC1)AaORCO, Dm(NT-TM3)AaOROC, Dm(NT-TM4)AaORCO, Dm(NT-TM5)AaORCO,”, “Dm(NT-TM6)AmORCO];” for “Dm(NT-TM6)AaORCO];”, “2. […]” for “1.”

Molecule | intensity of response (relative amount of luminescence) to 1-octen-3-ol | further results
Aa(TM1-4Dm)AaORCO: chimeric co-receptor: first to fourth transmembrane domains from Drosophila co-receptor, other domains from Aedes co-receptor; SEQ ID NO:82 (protein) MNVQPTKYHGLVLDLMPNIRLMQGFGHFLFRYVNGPVLIKKVYSSVHLVFLLMQFTFILVNMAMNTGDVNELTANTITTLFFTHCITKFIYLAVNSEHFYRTLGIWNQPNSHSLFAESDARYHSIALAKMRKLFFLVMLTTVASATAWTTITFFGDSVKNVFDKETNETYTVEIPRLPIKAWYPWDAMHGMFYMISFAFQIYYVLFSMIHSNLCDVMFCSWLIFACEQLQHLKGIMRPLMELSATLDTYRPNSAALFRVASAGSKSELILNEEKDPDTKDFDLNGIYNSKADWGAQFRAPSTLQTFGDNGINGNPNGLTKKQELMVRSAIKYWVERHKHVVRLVSAIGETYGAALLLHMLTSTIKLTLLAYQATKIDALNVYGLTVIGYLVYALAQVFLFCIFGNRLIEESSSVMEAAYSCHWYDGSEEAKTFVQIVCQQCQKAMTISGAKFFTVSLDLFASVLGAVVTYFMVLVQLK | the intensity of response to 1-octen-3-ol was decreased | –
Aa(NT-TM4)AmORCO: chimeric co-receptor: NT to TM4 from Aedes co-receptor, IC2 to C-terminal domain from Apis co-receptor; SEQ ID NO:108 (protein) MNVQPTKYHGLVLDLMPNIRLMQGFGHFLFRYVNGPVLIRKLYSWWNLIMILLQYFAIMGNLVMNTGDVNELTANTITTLFFTHSVTKFIYVAVNSEHFYRTLGIWNQPNSHSLFAESDARYHSIALAKMRKLLVMVMVTTVLSVVAWITITFFGDSVKNVFDKETNETYTVEIPRLPIKAWYPWDAMSGVPYFFSFIYQAYFLLFSMCQANLADVMFCSWLLFTCEQLQHLKNIMKPLMEFSATLDTVVPNSGELFKAGSAEQPKEQEPLPPVTPPQGENMLDMDLRGIYSNRTDFTTTFRPTAGMTFNGGVGPNGLTKKQEMLVRSAIKYWVERHKHIVRLVTAIGDAYGVALLLHMLTTTITLTLLAYQATKIHAVDTYAASVVGYLLYSLGQVFMLCIFGNRLIEESSSVMEAAYSCHWYDGSEEAKTFVQIVCQQCQKAMSISGAKFFTVSLDLFASVLGAMVTYFMVLVQLK | – | response (relative amount of luminescence) to 1-octan-3-ol (compared to cells that expressed original AaORCO or AmORCO): responded more strongly to 1-octan-3-ol
Dm(NT-TM4)AaORCO: chimeric co-receptor: NT to TM4 (residues 1-234) from Drosophila co-receptor, IC2 to C-terminal domain from Aedes co-receptor; SEQ ID NO:71 (protein) MTTSMQPSKYTGLVADLMPNIRAMKYSGLFMHNFTGGSAFMKKVYSSVHLVFLLMQFTFILVNMALNAEEVNELSGNTITTLFFTHCITKFIYLAVNQKNFYRTLNIWNQVNTHPLFAESDARYHSIALAKMRKLFFLVMLTTVASATAWTTITFFGDSVKMVVDHETNSSIPVEIPRLPIKSFYPWNASHGMFYMISFAFQIYYVLFSMIHSNLCDVMFCSWLIFACEQLQHLKGIMRPLMELSATLDTYRPNSAALFRVASAGSKSELILNEEKDPDTKDFDLNGIYNSKADWGAQFRAPSTLQTFGDNGINGNPNGLTKKQELMVRSAIKYWVERHKHVVRLVSAIGETYGAALLLHMLTSTIKLTLLAYQATKIDALNVYGLTVIGYLVYALAQVFLFCIFGNRLIEESSSVMEAAYSCHWYDGSEEAKTFVQIVCQQCQKAMTISGAKFFTVSLDLFASVLGAVVTYFMVLVQLK | responded more strongly to 1-octen-3-ol; also recorded: the intensity of response to 1-octen-3-ol was higher | –
Dm(792)AaORCO: chimeric co-receptor: N-terminus to residue 264 from Drosophila co-receptor, residue 265 to C-terminus from Aedes co-receptor; SEQ ID NO:74 (protein) MTTSMQPSKYTGLVADLMPNIRAMKYSGLFMHNFTGGSAFMKKVYSSVHLVFLLMQFTFILVNMALNAEEVNELSGNTITTLFFTHCITKFIYLAVNQKNFYRTLNIWNQVNTHPLFAESDARYHSIALAKMRKLFFLVMLTTVASATAWTTITFFGDSVKMVVDHETNSSIPVEIPRLPIKSFYPWNASHGMFYMISFAFQIYYVLFSMIHSNLCDVMFCSWLIFACEQLQHLKGIMKPLMELSASLDTYRPNSAALFRSLSAGSKSELILNEEKDPDTKDFDLNGIYNSKADWGAQFRAPSTLQTFGDNGINGNPNGLTKKQELMVRSAIKYWVERHKHVVRLVSAIGETYGAALLLHMLTSTIKLTLLAYQATKIDALNVYGLTVIGYLVYALAQVFLFCIFGNRLIEESSSVMEAAYSCHWYDGSEEAKTFVQIVCQQCQKAMTISGAKFFTVSLDLFASVLGAVVTYFMVLVQLK | – | intensity of response to 1-octen-3-ol (compared to cells that expressed original AaORCO): the intensity of response to 1-octen-3-ol was decreased
Dm(NT-636)AaORCO: chimeric co-receptor: N-terminus to residue 212 from Drosophila co-receptor, residue 213 to C-terminus from Aedes co-receptor; SEQ ID NO:78 (protein) MTTSMQPSKYTGLVADLMPNIRAMKYSGLFMHNFTGGSAFMKKVYSSVHLVFLLMQFTFILVNMALNAEEVNELSGNTITTLFFTHCITKFIYLAVNQKNFYRTLNIWNQVNTHPLFAESDARYHSIALAKMRKLFFLVMLTTVASATAWTTITFFGDSVKMVVDHETNSSIPVEIPRLPIKSFYPWNASHGMFYMISFAFQIYYVLFSMIHANLADVMFCSWLLFTCEQLQHLKGIMRPLMELSATLDTYRPNSAALFRVASAGSKSELILNEEKDPDTKDFDLNGIYNSKADWGAQFRAPSTLQTFGDNGINGNPNGLTKKQELMVRSAIKYWVERHKHVVRLVSAIGETYGAALLLHMLTSTIKLTLLAYQATKIDALNVYGLTVIGYLVYALAQVFLFCIFGNRLIEESSSVMEAAYSCHWYDGSEEAKTFVQIVCQQCQKAMTISGAKFFTVSLDLFASVLGAVVTYFMVLVQLK | the intensity of response to 1-octen-3-ol was decreased | –
Dm(TM1-4Aa)AaORCO: chimeric co-receptor: amino-terminal domain, EC1, IC1, EC2 from Drosophila co-receptor, other domains from Aedes co-receptor; SEQ ID NO:86 (protein) MTTSMQPSKYTGLVADLMPNIRAMKYSGLFMHNFTGGSAFMRKLYSWWNLIMILLQYFAIMGNLVLNAEEVNELSGNTITTLFFTHSVTKFIYVAVNQKNFYRTLNIWNQVNTHPLFAESDARYHSIALAKMRKLLVMVMVTTVLSVVAWITITFFGDSVKMVVDHETNSSIPVEIPRLPIKSFYPWNASSGVPYFFSFIYQAYFLLFSMCQANLADVMFCSWLLFTCEQLQHLKGIMRPLMELSATLDTYRPNSAALFRVASAGSKSELILNEEKDPDTKDFDLNGIYNSKADWGAQFRAPSTLQTFGDNGINGNPNGLTKKQELMVRSAIKYWVERHKHVVRLVSAIGETYGAALLLHMLTSTIKLTLLAYQATKIDALNVYGLTVIGYLVYALAQVFLFCIFGNRLIEESSSVMEAAYSCHWYDGSEEAKTFVQIVCQQCQKAMTISGAKFFTVSLDLFASVLGAVVTYFMVLVQLK | the intensity of response to 1-octen-3-ol was decreased | –
